# Article PMC12578638
# Assays:
# [1] = target: biotinylated pDPEP1-Avi (pig DPEP1 residues 17-385) (pig (Sus scrofa)) (UniProt P22412); assay: BLI
# [2] = target: hDPEP1-Avi (human DPEP1 residues 17-385) (human) (UniProt P16444); assay: BLI
# Chain of UniProt P16444 (P16444 17-385): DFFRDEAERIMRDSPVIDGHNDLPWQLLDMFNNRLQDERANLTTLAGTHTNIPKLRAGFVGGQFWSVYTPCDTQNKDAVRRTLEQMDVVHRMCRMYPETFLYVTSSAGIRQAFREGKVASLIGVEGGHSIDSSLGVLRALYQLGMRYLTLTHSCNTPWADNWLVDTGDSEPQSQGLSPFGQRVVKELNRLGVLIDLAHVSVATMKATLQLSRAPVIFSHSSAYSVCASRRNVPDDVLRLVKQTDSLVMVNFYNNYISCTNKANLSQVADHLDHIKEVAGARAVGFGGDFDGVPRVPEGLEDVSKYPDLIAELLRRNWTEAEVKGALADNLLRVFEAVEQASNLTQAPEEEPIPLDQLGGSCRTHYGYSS
# Chain of UniProt P22412 (P22412 17-385): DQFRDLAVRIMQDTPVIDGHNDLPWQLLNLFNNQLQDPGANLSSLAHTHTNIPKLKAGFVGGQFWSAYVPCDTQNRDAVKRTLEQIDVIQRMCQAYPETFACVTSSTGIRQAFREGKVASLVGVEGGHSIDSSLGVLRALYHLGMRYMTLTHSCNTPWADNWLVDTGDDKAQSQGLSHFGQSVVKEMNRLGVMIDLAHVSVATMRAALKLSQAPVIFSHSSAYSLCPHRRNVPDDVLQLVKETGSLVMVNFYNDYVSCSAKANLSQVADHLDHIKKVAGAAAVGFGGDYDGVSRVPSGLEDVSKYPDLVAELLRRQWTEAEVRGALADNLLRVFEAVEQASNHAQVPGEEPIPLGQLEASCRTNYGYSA
substance,measurement,setting,value
"PHEV spike RBD (residues 327-605), from Expi293F cells (domain or fragment)",Kd,[1],1500 nM
same,Kd,[2],2990 nM
